Two molecules from patent US20250216395A1 (ATYR PHARMA, published 2025) can be followed below.

T1: NRP1v2 (22-602) (human, UniProt O14786 22-602)
T1 construct: Recombinant protein; also called human NRP1
T1 sequence: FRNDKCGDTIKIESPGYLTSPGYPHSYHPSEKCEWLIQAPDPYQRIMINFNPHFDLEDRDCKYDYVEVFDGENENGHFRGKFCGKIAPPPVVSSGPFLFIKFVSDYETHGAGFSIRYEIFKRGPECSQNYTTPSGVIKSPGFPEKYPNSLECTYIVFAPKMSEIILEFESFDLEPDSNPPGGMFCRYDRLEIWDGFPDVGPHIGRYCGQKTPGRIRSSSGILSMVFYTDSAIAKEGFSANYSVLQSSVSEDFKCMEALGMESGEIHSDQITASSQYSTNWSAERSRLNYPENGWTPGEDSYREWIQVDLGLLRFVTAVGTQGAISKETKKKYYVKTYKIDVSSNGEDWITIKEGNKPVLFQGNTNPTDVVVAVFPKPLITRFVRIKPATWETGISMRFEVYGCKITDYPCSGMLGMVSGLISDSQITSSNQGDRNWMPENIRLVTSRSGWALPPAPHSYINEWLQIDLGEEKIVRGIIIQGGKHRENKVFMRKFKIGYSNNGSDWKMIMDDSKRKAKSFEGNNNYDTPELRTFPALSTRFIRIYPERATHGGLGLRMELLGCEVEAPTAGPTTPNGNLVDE

B1: aNRP2-36v2 (antibody, V domains shown)
VH: ELQLQQSGPELVKPGASVKISCKASGYSFTDYNMNWVKQSNGKSLEWIGVINPKSGTTVYNQKFKGKATLTVDQSSSTAYMQLNSLTSEDSAVYYCARADSSGGCWGQGTTLTVSS
VL: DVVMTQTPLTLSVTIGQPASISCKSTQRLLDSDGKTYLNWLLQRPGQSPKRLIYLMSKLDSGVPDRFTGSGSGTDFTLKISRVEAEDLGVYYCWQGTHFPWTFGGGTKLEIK
notes: Three purification lots were tested; also called antibody aNRP2-36v2; anti-NRP2 antibody
B2: blocking peptide NRP2 (642-659) (peptide)
peptide: SGFNCNFDFLEEPCGWMY
notes: Peptide corresponding to residues 642-659 of NRP2

One test deals with T1, NRP1v2 (22-602). Put plainly: Western blot, denatured recombinant protein with or without 50 mM DTT. As to the method:
To characterize the binding specificity of antibody aNRP2-36v2 to different denatured isoforms of NRP2 its binding specificity was tested via western blot. In addition to assessing the relative binding to NRP2a and NRP2b, cross-reactivity to mouse and rat NRP2 were also evaluated, as well as non-specific binding to NRP1. The proteins tested via Western were NRP2v2 (23-855) (SEQ ID NO: 14), NRP2v5 (23-832) (SEQ ID NO: 27), mouse NRP2v2 (23-855) (SEQ ID NO: 21), rat NRP2×2 (23-854) (SEQ ID NO: 22), and NRP1v2 (22-602) (SEQ ID NO: 24).
25 ng of each recombinant protein was denatured for 10 minutes at 70° C. with 1×LDS (ThermoFisher, NP0007) with or without 50 mM DTT and separated on a 4-12% Bis-Tris Protein Gel (ThermoFisher, NP0335) in 1×MOPS buffer (ThermoFisher, NP000102). The gel was then transferred to a nitrocellulose membrane (Fisher, cat. #IB23001) using an iBlot2 (Fisher, cat. #IB21001) for 7 min at 20V. The membrane was blocked for 1 hour using a 5% milk 0.05% TBST solution, followed by 1.0 ug/mL of the three lots of aNRP2-36v2 antibody diluted in 5% milk 0.05% TBST. Antibody was incubated on the blots overnight at 4° C. with rocking. After overnight incubation 3 washes with 0.05% TBST for 5 minutes each were performed and goat-a-mouse HRP secondary (Jackson Immuno Research, 115-035-071) diluted at 1:5,000 in the 5% milk mixture was applied to the blots for 1 hour. […]
Background: In western blotting, separated proteins are transferred to a membrane and probed.

The target in the test “aNRP2-36v2” is B1. Description: Western blot competition: 1 ug/mL aNRP2-36v2 with 5 ug/mL blocking peptide; the blocked detection is that of NRP2v2 (23-855) and of NRP2a isoform 2 in lysate. On the procedure: The specificity of aNRP2-36v2 in Western blotting was also confirmed by the ability of the blocking peptide NRP2 (642-659) (SEQ ID NO: 25) to block binding. For these studies, 100 ng of NRP2v2 (23-855) (SEQ ID NO: 14) recombinant protein and 20 ug of total protein from cell lysates of Expi293 cells transiently expressing NRP2a isoform 2 (SEQ ID NO: 10) were denatured for 10 minutes at 70° C. with 1×LDS (ThermoFisher, NP0007) and separated on a 4-12% Bis-Tris Protein Gel (ThermoFisher, NP0335) in 1×MOPS buffer (ThermoFisher, NP000102). The gel was then transferred to a nitrocellulose membrane (Fisher, cat. #IB23001) using an iBlot2 (Fisher, cat. #IB21001) for 7 min at 20V. The membrane was blocked for 1 hour using a 5% milk 0.05% TBST solution, followed by 1 ug/mL of aNRP2-36v2 antibody with or without 5 ug/mL blocking peptide, diluted in 5% milk 0.05% TBST. A peptide corresponding to NRP2v2 (809-820) (SEQ ID NO: 26) was also used as a control. Antibody was incubated on the blots overnight at 4° C. with rocking. After overnight incubation 3 washes with 0.05% TBST for 5 minutes each were performed and goat-a-mouse HRP secondary (Jackson Immuno Research, 115-035-071) diluted at 1:5,000 in the 5% milk mixture was applied to the blots for 1 hour. This was followed by 3 more washes with 0.05% TBST for 5 minutes each. […]

Chain of aNRP2-36v2 (VL, as listed by the source): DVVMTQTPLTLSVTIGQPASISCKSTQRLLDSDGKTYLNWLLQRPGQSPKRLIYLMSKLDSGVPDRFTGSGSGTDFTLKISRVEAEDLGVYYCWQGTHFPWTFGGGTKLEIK

In the case of B1, the binding result with NRP1v2 (22-602) is on record as “no binding”.
Regarding B2, the binding result in the test with aNRP2-36v2 is given as “binds”.
